# Measurements from US20220064325A1 (ALLIGATOR BIOSCIENCE, published 2022).
# T1: human EpCAM expressed on cells (human, UniProt P16422 24-314)
# T1 construct: whole, on cells; In the debris and exosome assays EpCAM stands on heat-shocked tumour cell debris or on exosomes; also called EpCAM on CHO-EpCAM, JEG, JAR, HT29, BxPC3, MCF7 and MB49-hEpCAM-OVA cells, their debris or exosomes
# T1 sequence (looked up): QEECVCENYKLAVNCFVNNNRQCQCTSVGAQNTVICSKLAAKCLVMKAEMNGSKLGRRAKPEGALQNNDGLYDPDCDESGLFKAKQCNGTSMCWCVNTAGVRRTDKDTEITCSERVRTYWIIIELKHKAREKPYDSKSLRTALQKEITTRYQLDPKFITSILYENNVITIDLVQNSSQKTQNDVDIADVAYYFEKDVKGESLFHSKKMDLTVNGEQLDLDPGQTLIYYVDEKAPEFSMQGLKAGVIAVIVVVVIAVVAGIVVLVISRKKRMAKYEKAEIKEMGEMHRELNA
# T2: hEpCAM (R&D Systems #9277-EP), monomeric antigen EpCAM-his (human, UniProt P16422 24-265)
# T2 construct: Bought reagent; also called human EpCAM; not shown: His tag
# T2 sequence (looked up): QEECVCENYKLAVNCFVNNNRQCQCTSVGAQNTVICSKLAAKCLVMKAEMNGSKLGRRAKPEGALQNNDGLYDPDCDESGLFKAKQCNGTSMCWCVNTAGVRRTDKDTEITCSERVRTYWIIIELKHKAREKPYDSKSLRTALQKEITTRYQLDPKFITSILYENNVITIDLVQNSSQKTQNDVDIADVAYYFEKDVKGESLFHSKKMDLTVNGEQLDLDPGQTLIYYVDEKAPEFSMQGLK
# T3: dimeric antigen EpCAM-Fc (Sino hEpCAM_Fc #10694-H02H) (human, UniProt P16422 24-265)
# T3 construct: not shown: Fc part
# T3 sequence (looked up): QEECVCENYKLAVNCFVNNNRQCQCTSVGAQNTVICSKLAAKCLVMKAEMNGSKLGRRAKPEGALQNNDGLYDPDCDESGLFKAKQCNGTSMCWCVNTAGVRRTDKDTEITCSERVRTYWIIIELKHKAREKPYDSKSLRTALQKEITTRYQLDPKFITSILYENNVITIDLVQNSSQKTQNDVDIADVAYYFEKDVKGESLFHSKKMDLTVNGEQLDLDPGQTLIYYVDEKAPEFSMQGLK
# Experiments:
# [1] = target: T1, human EpCAM expressed on cells; assay: flow cytometry, titration of biotinylated antibody on EpCAM-transfected CHO cells, detection with fluorochrome-conjugated streptavidin
# From the text: FIG. 3. […] Binding of biotinylated antibodies was detected by flow cytometry using fluorochrome-conjugated streptavidin. Results are pooled from two replicates in one representative experiment of two.
# The human EpCAM gene was cloned into pcDNA3.1, and the vector was subsequently stably transfected into CHO cells. Control CHO cells were stably transfected with and empty pcDNA3.1 vector. […] Binding of biotinylated antibodies was detected with fluorochrome-conjugated streptavidin and analysed using flow cytometry.
# [2] = target: T4, human CD40 expressed on cells (human, UniProt P25942 21-277); assay: flow cytometry, titration of biotinylated antibody on human PBMC gated with CD19, CD14, CD3 and CD56, detection with fluorochrome-conjugated streptavidin
# T4 construct: whole, on cells; also called CD40 on primary human B cells, monocytes, monocyte-derived DCs, Raji cells and hCD40tg mouse DCs
# T4 sequence (P25942 21-277): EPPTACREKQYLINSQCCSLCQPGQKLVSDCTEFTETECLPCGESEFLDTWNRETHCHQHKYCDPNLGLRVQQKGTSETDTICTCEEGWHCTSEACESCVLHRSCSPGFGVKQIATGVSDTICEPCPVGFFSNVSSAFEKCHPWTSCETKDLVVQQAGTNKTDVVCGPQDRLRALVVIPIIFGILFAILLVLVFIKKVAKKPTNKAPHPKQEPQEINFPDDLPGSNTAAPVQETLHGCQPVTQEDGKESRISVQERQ
# From the text: FIG. 5. […] Binding of biotinylated antibodies to different cell populations was detected by flow cytometry using fluorochrome-conjugated streptavidin. Results are pooled from three donors in one representative experiment of two.
# Binding of biotinylated antibodies was detected with fluorochrome-conjugated streptavidin and analysed using flow cytometry.
# [3] = target: T2, hEpCAM (R&D Systems #9277-EP), …; assay: Mono ELISA (top frame): plate coated with 0.5 µg/mL hEpCAM, detection with HRP-labelled goat anti-human kappa light chain, luminescence
# [4] = target: T2, hEpCAM (R&D Systems #9277-EP), …; assay: BLI (Octet RED96), Assay 2: bsAb on FAB2G sensors, monomeric EpCAM-his in solution, 1:1 fit
# Protocol: (§1) Kinetic measurements were performed using the Octet RED96 platform (ForteBlo).
# (§2) BsAb at 1.0 or 1.5 ug/ml where coupled to anti-human Fab-CH1 2nd generation (FAB2G) biosensors (Part no #18-5125 (tray)). Antigens were serially diluted % in 1× Kinetic buffer (ForteBio) to 100 nM, 50 nM, 25 nM, 12.5 nM, 6.25 nM, 3.125 nM, 1.56 nM or 0 nM. The association was followed for 300 seconds and the dissociation in 1× Kinetic buffer for 300 seconds. Sensor tips were regenerated using 10 mM glycine, pH 1.5. Data generated were referenced by subtracting a parallel buffer blank, the baseline was aligned with the y-axis, inter-step correlation by alignment against dissociation was performed and the data were smoothed by a Savitzky-Golay filter in the data analysis software (v.9.0.0.14). The processed data were fitted using a 1:1 Langmuir binding model with X2 as a measurement of fitting accuracy.
# [5] = target: T3, dimeric antigen EpCAM-Fc (Sino …); assay: BLI (Octet RED96), Assay 1: bsAb on FAB2G sensors, dimeric EpCAM-Fc in solution, 1:1 fit
# Protocol: as §1, §2
# [6] = target: T3, dimeric antigen EpCAM-Fc (Sino …); assay: BLI (Octet RED96), Assay 3: hEpCAM_Fc coupled to AR2G sensors, bsAb in solution, 1:1 fit
# Protocol: as §1
# Antigen was coupled to Amine reactive Second generation sensors (Dip and Read Amine reactive Second-Generation (AR2G) Biosensors (Part no #18-5092 (tray)) at antigen concentrations of 0.4, 1.5, 0.25 or 0.5 μg/mL. BsAb (serially diluted % in 1× Kinetic buffer (ForteBio) with start concentrations of 20, 15, 10 or 25 nM) were analysed for binding to antigen-coupled sensors. The association was followed for 300 seconds and the dissociation in 1× Kinetic buffer for 300 seconds. Sensor tips were regenerated using 10 mM glycine, pH 2.2. Data generated were referenced by subtracting a parallel buffer blank, the baseline was aligned with the y-axis, inter-step correlation by alignment against dissociation was performed and the data were smoothed by a Savitzky-Golay filter in the data analysis software (v.9.0.0.14). The processed data were fitted using a 1:1 Langmuir binding model with X2 as a measurement of fitting accuracy.
binding result [1],binding result [2],EC50 (read off the curve) [3] [nM],Kd [4] [nM],koff [4] [s⁻¹],kon [4] [M⁻¹ s⁻¹],Kd [5] [nM],koff [5] [s⁻¹],kon [5] [M⁻¹ s⁻¹],Kd [6] [nM],koff [6] [s⁻¹],kon [6] [M⁻¹ s⁻¹],Binder
no binding (tested: about 300 nM),binds,,,,,,,,,,,"1132.m2 (antibody, V domains shown, Full chains are not tied to this name; also called LALA-mutated agonistic monoclonal CD40 antibody) VH: EVQLLESGGGLVQPGGSLRLSCAASGFTFSSYAMSWVRQAPGKGLEWVSGIGSYGGGTYYADSVKGRFTISRDNSKNTLYLQMNSLRAEDTAVYYCARYVNFGMDYWGQGTLVTVSS VL: DIQMTQSPSSLSASVGDRVTITCRASQSISSYLNWYQQKPGKAPKLLIYAASSLQSGVPSRFSGSGSGTDFTLTISSLQPEDFATYYCQQYGRNPPTFGQGTKLEIK"
,,~0.5,300,0.01,30000,4,0.001,300000,,,,"1132-005025.M (bispecific antibody, also called CD40-EpCAM bispecific antibody in the Morrison format) VH: EVQLLESGGGLVQPGGSLRLSCAASGFTFSSYAMSWVRQAPGKGLEWVSGIGSYGGGTYYADSVKGRFTISRDNSKNTLYLQMNSLRAEDTAVYYCARYVNFGMDYWGQGTLVTVSS VL: DIQMTQSPSSLSASVGDRVTITCRASQSISSYLNWYQQKPGKAPKLLIYAASSLQSGVPSRFSGSGSGTDFTLTISSLQPEDFATYYCQQYGRNPPTFGQGTKLEIK scFv: not shown"
,,~1,1000,0.01,8000,6,0.002,300000,,,,"1132-005038.M (bispecific antibody, also called CD40-EpCAM bispecific antibody in the Morrison format) VH: EVQLLESGGGLVQPGGSLRLSCAASGFTFSSYAMSWVRQAPGKGLEWVSGIGSYGGGTYYADSVKGRFTISRDNSKNTLYLQMNSLRAEDTAVYYCARYVNFGMDYWGQGTLVTVSS VL: DIQMTQSPSSLSASVGDRVTITCRASQSISSYLNWYQQKPGKAPKLLIYAASSLQSGVPSRFSGSGSGTDFTLTISSLQPEDFATYYCQQYGRNPPTFGQGTKLEIK scFv: not shown"
,,~0.4,30,0.004,100000,< 0.001,< 1e-07,300000,,,,"1132-3188.M (bispecific antibody, V domains shown, also called CD40-EpCAM bispecific antibody in the Morrison format; 3188 = 4D5MOCB = BM1) VH 1: EVQLLESGGGLVQPGGSLRLSCAASGFTFSSYAMSWVRQAPGKGLEWVSGIGSYGGGTYYADSVKGRFTISRDNSKNTLYLQMNSLRAEDTAVYYCARYVNFGMDYWGQGTLVTVSS VL 1: DIQMTQSPSSLSASVGDRVTITCRASQSISSYLNWYQQKPGKAPKLLIYAASSLQSGVPSRFSGSGSGTDFTLTISSLQPEDFATYYCQQYGRNPPTFGQGTKLEIK VH 2: EVQLVQSGPGLVQPGGSVRISCAASGYTFTNYGMNWVKQAPGKGLEWMGWINTYTGESTYADSFKGRFTFSLDTSASAAYLQINSLRAEDTAVYYCARFAIKGDYWGQGTLLTVSS VL 2: DIQMTQSPSSLSASVGDRVTITCRSTKSLLHSNGITYLYWYQQKPGKAPKLLIYQMSNLASGVPSRFSSSGSGTDFTLTISSLQPEDFATYYCAQNLEIPRTFGQGTKVELK"
,,,500,0.01,20000,0.5,8e-05,200000,10,0.002,200000,"1132-3174.M (bispecific antibody, V domains shown, also called CD40-EpCAM bispecific antibody in the Morrison format) VH 1: EVQLLESGGGLVQPGGSLRLSCAASGFTFSSYAMSWVRQAPGKGLEWVSGIGSYGGGTYYADSVKGRFTISRDNSKNTLYLQMNSLRAEDTAVYYCARYVNFGMDYWGQGTLVTVSS VL 1: DIQMTQSPSSLSASVGDRVTITCRASQSISSYLNWYQQKPGKAPKLLIYAASSLQSGVPSRFSGSGSGTDFTLTISSLQPEDFATYYCQQYGRNPPTFGQGTKLEIK VH 2: EVQLLEQSGAELVRPGTSVKISCKASGYAFTNYWLGWVKQRPGHGLEWIGDIFPGSGNIHYNEKFKGKATLTADKSSSTAYMQLSSLTFEDSAVYFCARLRNWDEPMDYWGQGTTVTVSS VL 2: ELVMTQSPSSLTVTAGEKVTMSCKSSQSLLNSGNQKNYLTWYQQKPGQPPKLLIYWASTRESGVPDRFTGSGSGTDFTLTISSVQAEDLAVYYCQNDYSYPLTFGAGTKLEIK"
